Test results as given in the supplement of paper PMC10724198.
± gives the standard deviation of the averaged measurements.

Test system: Saccharomyces cerevisiae
Test: protein stability index of tFT-peptide fusion (C-terminal peptide) (PSI (0-1 scale)); higher = more stable (slower turnover)
Details: genetic background: wild type; temperature: 30 C
Protocol: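 Multiplexed protein stability (MPS) profiling in S. cerevisiae. Random 12-aa peptides (tFT-X12 library) are fused to the C-terminus of a sfGFP-mCherry tandem fluorescent timer, after mCherry and a GGGS linker. Cells are FACS-sorted into 8 mCherry/sfGFP bins and deep-sequenced. The protein stability index (PSI) is the read-weighted bin average, scaled from 0 (unstable) to 1 (stable). Only peptides with >10 reads are reported; cells were grown at 30 °C in SC-His with glucose.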
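Also: PSI is a weighted mean of sequencing reads over stability bins, variants kept only with over 10 reads, mCherry proximal and sfGFP distal, peptide attached via GGGS linker.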

Sequence | protein stability index
GSSCHFPARCPV | 0.659 ± 0.018
GSSKVKEGNACR | 0.694 ± 0.057
GSSRRMGEGVEM | 0.69 ± 0.02
GSVMGVGLEKKI | 0.732 ± 0.052
GSVRLLDNLQRL | 0.663 ± 0.057
GSVTIDSMIHMR | 0.667 ± 0.037
GSWLGVGDRLVC | 0.717 ± 0.17
GSWMSGLWQTPV | 0.722 ± 0.065
GTCWAGALGVVG | 0.684 ± 0.04
GTDGGRSSLGCR | 0.718 ± 0.026
GTDVGKVSASQG | 0.638 ± 0.037
GTGGIFAVAPTL | 0.737 ± 0.044
GTGRRRGWGVMG | 0.664 ± 0.026
GTLWPLPCRPDG | 0.5607 ± 0.0021
GTMAVWKGQRSG | 0.698 ± 0.04
GTNARGGPINIG | 0.675 ± 0.0065
GTRQLGRTEPGE | 0.695 ± 0.038
GTTDVHLLLECE | 0.729 ± 0.011
GTTNRMVTQKGF | 0.712 ± 0.024
GVCCLWVGFQGG | 0.704 ± 0.017
GVCGVSKGRRHR | 0.701 ± 0.018
GVCWGNFGWRAV | 0.6839 ± 0.005
GVDDGGGCCRVR | 0.773 ± 0.009
GVDGVLGGWGCG | 0.786 ± 0.1
GVDVSCVSPFGG | 0.705 ± 0.03
GVECGSVCGGGG | 0.651 ± 0.013

Sequence | protein stability index
GVEFKVVSFVVD | 0.646 ± 0.094
GVEVSVFFFHFL | 0.576 ± 0.097
GVFCWVGLSAFL | 0.5866 ± 0.004
GVGGGEECHGVG | 0.556 ± 0.018
GVGGGGACRPVG | 0.709 ± 0.15
GVGGGMGMGERW | 0.788 ± 0.18
GVGGGMWCGFGV | 0.701 ± 0.074
GVGLKMLSVGDI | 0.6119 ± 0.002
GVGLSGVGGLGR | 0.6439 ± 0.004
GVGSVADWGGVG | 0.599 ± 0.018
GVGVHAASGGEN | 0.723 ± 0.009
GVGVLGGGYMCL | 0.647 ± 0.069
GVGWFGRGTVGW | 0.676 ± 0.035
GVGYCCVSGGLG | 0.722 ± 0.011
GVIGPFSHDGCA | 0.662 ± 0.021
GVILPVVKARLA | 0.472 ± 0.042
GVLGLDLSVVGG | 0.716 ± 0.035
GVLGSIQLFLGI | 0.699 ± 0.0091
GVLPWQYSSFLS | 0.694 ± 0.058
GVLRGNRITECF | 0.716 ± 0.049
GVLVAFLWGESV | 0.593 ± 0.018
GVRDGGTRGSEG | 0.7012 ± 0.0055
GVRGGWVVNRGV | 0.732 ± 0.026
GVRLSPTACSSI | 0.678 ± 0.071
GVRRAAFAKYGG | 0.655 ± 0.0071
GVRRSQSCPVRS | 0.7065 ± 0.0051

Sequence | protein stability index
GVRYFKWGCTHG | 0.684 ± 0.029
GVSAPGDAGAVP | 0.654 ± 0.015
GVSCGWVAHARW | 0.694 ± 0.061
GVSSGVSFVLGH | 0.702 ± 0.0083
GVSVGGSSGGSG | 0.6868 ± 0.0048
GVSVSSSFLNGC | 0.669 ± 0.019
GVTGGWVVNRGV | 0.7054 ± 0.007
GVTGRGVSRVYG | 0.671 ± 0.013
GVTLKSPTGRVF | 0.666 ± 0.097
GVVGGVGGFFGC | 0.754 ± 0.0013
GVVGLEVLGRWG | 0.687 ± 0.047
GVVMMGERGGER | 0.685 ± 0.049
GVWREVGNIEEV | 0.701 ± 0.0099
GVWWRRVVFGRR | 0.696 ± 0.075
GWCTLASGLFTT | 0.673 ± 0.1
GWGGVWGRVWWR | 0.563 ± 0.05
GWGKWGVGIGRG | 0.694 ± 0.032
GWIAEFGLAGGP | 0.661 ± 0.0089
GWLGPGCVGRMQ | 0.733 ± 0.068
GWPLWGAVRGFW | 0.71 ± 0.035
GWPVGSLKTPCR | 0.726 ± 0.046
GWRFGKVCGLGG | 0.726 ± 0.07
GWSTKSTYHKPT | 0.732 ± 0.025
GYFSTFIKSSML | 0.715 ± 0.029
GYKLLIEGNWEV | 0.756 ± 0.025
GYRRTGGLHGVV | 0.716 ± 0.034

Sequence | protein stability index
GYRSLADSIDLL | 0.7244 ± 0.0066
GYRSSWRALRVG | 0.564 ± 0.076
GYTDPYPAAAPS | 0.639 ± 0.056
GYVHPSWLWANT | 0.732 ± 0.033
GYVVVGGGGWLG | 0.6754 ± 0.0025
GYYPVALDYKLR | 0.708 ± 0.05
HCFASLITSIVH | 0.535 ± 0.025
HCSVSGLQLFMD | 0.699 ± 0.019
HCYKRGSCTSLI | 0.631 ± 0.087
HDPRVGDNAHFV | 0.641 ± 0.099
HFFSFLACFVDL | 0.632 ± 0.054
HFLPFSLLLFPP | 0.755 ± 0.14
HFPLRIYSPNGP | 0.697 ± 0.095
HFPLSLSPPPPP | 0.721 ± 0.032
HFQASRLLCEGD | 0.638 ± 0.026
HFVAALVLLTLD | 0.72 ± 0.17
HFVAPLSPRGSL | 0.633 ± 0.038
HGAPLPTSAPKH | 0.7271 ± 0.0031
HGTAQGVRRQGV | 0.711 ± 0.16
HGWACSRSPCAV | 0.756 ± 0.048
HHAHRLPTLATS | 0.693 ± 0.074
HHAKWAHGTPAQ | 0.681 ± 0.022
HHSLLLPPPPPP | 0.673 ± 0.019
HILDDHVRISNA | 0.685 ± 0.0096
HIPHSKPRTSLP | 0.734 ± 0.048
HKDVRGRSLSRM | 0.7183 ± 0.0024

Sequence | protein stability index
HKENTKEKKKRE | 0.693 ± 0.043
HLFPSPPPSTLP | 0.495 ± 0.045
HLFVPGAFFFFS | 0.718 ± 0.073
HLGIKGFHIFGY | 0.69 ± 0.0071
HLIPSPPTPPRP | 0.664 ± 0.0072
HLKPTPPLPPNT | 0.67 ± 0.017
HLLPRPIRPSTP | 0.664 ± 0.074
HLLSPPLPPSPA | 0.728 ± 0.039
HLPPLPRPPSLT | 0.7049 ± 0.0069
HLPSLLRPPFLL | 0.7038 ± 0.0018
HLPSPSLPSPYF | 0.7648 ± 0.0017
HLPSSRHNPLQN | 0.695 ± 0.037
HLPWTGTPHATV | 0.737 ± 0.029
HLRSALSVHPTL | 0.707 ± 0.051
HLSPPPLMPPCC | 0.759 ± 0.067
HNDYKGSQIDNG | 0.573 ± 0.046
HNIQHKIHTKSR | 0.761 ± 0.039
HNRSFLIPFFPF | 0.671 ± 0.085
HPKASNSLRFSS | 0.649 ± 0.0072
HPLPPTGPPSPS | 0.77 ± 0.041
HPPLAPQPPPPP | 0.711 ± 0.033
HPPLPRPPPPPP | 0.645 ± 0.057
HPPPLGSSASNS | 0.703 ± 0.039
HPPPPSPPSPLP | 0.724 ± 0.036
HPPPTPPSPPPP | 0.667 ± 0.088
HPPPTSQPPPGP | 0.726 ± 0.05

Sequence | protein stability index
HPPRPPLPRPRL | 0.778 ± 0.19
HPPSLPSAPSLP | 0.694 ± 0.029
HPPYRHHPAPLR | 0.673 ± 0.058
HPQPIPVGGLSF | 0.6962 ± 0.0049
HPSGLFSFVCLS | 0.567 ± 0.0057
HPSREPLLLCYH | 0.618 ± 0.067
HPTDVAISPRPS | 0.678 ± 0.023
HPTSHRPLPAAF | 0.724 ± 0.0075
HPTSNQATGRAN | 0.692 ± 0.077
HREQSTILDLKE | 0.715 ± 0.036
HRFFDGVRFPGH | 0.692 ± 0.038
HRFPPDLYQHGP | 0.645 ± 0.011
HRFPPPRPPPFS | 0.729 ± 0.047
HRLTFLDTPSGH | 0.781 ± 0.076
HRNAFLLPPFPL | 0.695 ± 0.014
HRQERLETKTYF | 0.623 ± 0.13
HSFASTWYSSPG | 0.685 ± 0.0076
HSGPPSPFPLNV | 0.718 ± 0.034
HSHTHRHSHGTR | 0.7 ± 0.083
HSPPPSLGPVPA | 0.6636 ± 0.0049
HSRAPNNWHRGI | 0.708 ± 0.043
HSRPRRQPPHSP | 0.705 ± 0.018
HSTENGGCTREY | 0.646 ± 0.039
HSTPDSAAQEPG | 0.673 ± 0.065
HTLQDERNRRRD | 0.696 ± 0.072
